Reference: article PMC5680780

Biological target: recombinant Clonorchis sinensis pyruvate kinase (Clonorchis sinensis)
Assay: native gel or EMSA + SEC; purified rCsPK on 8% native PAGE against marker proteins; gel filtration on a Sepharose 12 10/300 GL column (AKTA FPLC), 0.8 ml/min, 50 mM Tris-HCl, 100 mM KCl, pH 7.5; apparent Mr about 290 kDa against a subunit of about 58 kDa

stoichiometry N: 5
Substance: recombinant Clonorchis sinensis pyruvate kinase (enzyme)
